The data set in a line: label from the status in PepcDB records.
“MNPTTLADVDTVIINANILTLDRDCPHAQAIAFAAGRILALGTTQELSPLAGRAATVVDARGSTLLPGFIDSHSHLMFGGVVAQALDLTEAACLSDLLDMVRSRAQSTPEGEWIRGYGVAAGRLKEKRYPTRQELDQVSGGRPVWLAEDSFHASLVNSKAFRMLEIPLSTPGVELAADGSPTGAFLNDAANVPARQRVFGFISDDEARQMLQHVTQLGATRGVTTVHAFEGSRMSADRDIELLMRFRHELPIHVVPYYETFDVERAMQLGVSGVGGCGRNCLDGMPNIQTAAMVDPYCCSEERGSLFQESIKLHNFVIAAFERGMQVGMHAMGDAAIEQLLATYERAIEETGRTDLRPRIEHFHVPSRDHVRRAADLGVGLAVQPIFTHLWGGRDGIFFERLGERRYKRIDTYREILDSGAIASCGADLPVHPADPLRWIQLLVDNQIDRDQSVSMTEAIRMCTYNGAWLGFQESETGTLAVSKAADAVMLGRDPHQCMPHEIAAIPILKTLGGKLVFESSRPLEHHHHHH”: the protein production entry is “failed”. “MNQDLSQTFLAITRNSTDLEWLQGALAPLGQVVGADGSLDELLALVDVTFANLVFVGLDREHVVAQAALIEGALEAKPMLAIVALGDGMDNQLVLNAMRAGARDFVAYGSRSSEVAGLVRRLSKRLPAVTPNTQLGGLTVLYGAQGDGDGALLASHLALVVQKSGQQTLLLDLGLPRGDSLALLGLESSFHFGDALRHLRRLDATLIDSAFTSAEAGLRILAYASHDAPLEHTSAAELYMLLSALRQHFQHIVVNLVGQPDSEALRTFVSHCDKLLWCTDQNVLDCRRNLAVLNHWREKGMKLEHARLLVDRYLRTVAPDSETLGKTFGLEVIAVLAYSPEVRLNAKNQGVTLFELAPREALTQSLRTLGERLAKRSQGLPKPKAGWLNRIMGGRLEHHHHHH”: the protein production result is on record as “failed”. As for “MNQEIAYLHPVKTARALVLVYLCFSVPIVAMGLFVAFIRYGDLPGITVFTALILNALIGFGLLWLGCKAYNWVAARFGGIEVHVRELTPEDRQ”, the entry is “failed”. On to “MNQFGPSALINLSNFSSIKPEPASTPPQGSMANSTAVVKIPGTPGAGGRLSPENNQVLTKKKLQDLVREVDPNEQLDEDVEEMLLQIADDFIESVVTAACQLARHRKSSTLEVKDVQLHLERQWNMWIPGFGSEEIRPYKKACTTEAHKQRMALIRKTTKK”, for which the protein production entry is “failed”.

As to “MNQHSFSLDDYYKSLINLDGMNDYYRYFIGLNGIIFPLLLIMSYPSVINLATKASFLIMLVGACCVLIDNWNRKSIAYRLYVELYENEYLANSDYKAGKVFVNLIFYVVSIYLISGVFGVL”, the protein production result was “failed”. As for “MNQKDVKLTVFSSDEKSFMVTATLVEKAGHAFLINSKFTQSDSKEIVEYLKKNNLSLDKIFIIHGDPDYYFGLESIKAVYPEAIAYATESTVEHIVHSVLGKLKVWKDALGENAPSNVVLPQVFKEKAIDFQGLTFELVGLEHYRTSLFNKELKVLIGGIDVFNEIHVFLADTSSKAAMEAWIENLKVLQALHADIIVPSHGSIEKSLNNQALTATMDYLRTAVQASEESGTSKDFVAKLEAAYPDYANKGVLELSAKVVTKELEHHHHHH”, the entry is “failed”.

In the case of “MNQQPIKIAVFGLGGVGGYYGAMLALRAAATDGLLEVSWIARGAHLEAIRAAGGLRVVTPSRDFLARPTCVTDNPAEVGTVDYILFCTKDYDMERGVAEIRPMIGQNTKILPLLNGADIAERMRTYLPDTVVWKGCVYISARKSAPGLITLEADRELFYFGSGLPEQTDDEVRLAELLTAAGIRAYNPTDIDWYIMKKFMMISVTATATAYFDKPIGSILTEHEPELLSLLEEVAELFRAKYGQVPDDVVQQLLDKQRKMPPESTSSMHSDFLQGGSTEVETLTGYVVREAEALRVDLPMYKRMYRELVSRTAN”, the protein production result is “not failed”. As for “MNQRIETITALLDEKKAFDITHIDLSKTPYLVEDVIIATTLANKHALSLLDALKNTLKPLGEVFYQIDESNEEWIILDLGDLMIHLFTEECRKKFDLEGFLNAYKRGLPYQNA”, the entry is “failed”; as for “MNQTFIYYTVLFLIIFITISNLVENYRYSPKKIKNIIGIAFLLQIIRIVSLIALALVSDQRYISLFKYVGFLDIIYIPLMALIAFYILLRSDKINFQFFKFAPMVLTGFYIGVITIFKPFFKMSWEYGYVITTEKQILLKSIYILFLVAILSFLILFKKENHSDKKGIVFLGVTLAFIIIENSLELLGVRFLNGAIISELILCILGFYIVLTFKKNRISIRDCIKS”, “failed”. With “MNRAFSRKKDKTWMHTPEALSKHFIPYNAKFLGSTEVEQPKGTEVVRDAVRKLKFARHIKKSEGQKIPKVELQISIYGVKILEPKTKEVQHNCQLHRISFCADDKTDKRIFTFICKDSESNKHLCYVFDSEKCVSIPDVVGWFVLFYKPGIVLLLALAKYLKMNNFL” the entry was “failed”; with “MNRARTNDRRRAGDGPRRSRSAGRPQNSGRRPAAAPQGGEFALPKTITPALPAVETFAELDLPARMLAALGDQGVTEPFPIQAATLPNSLAGRDVLGRGRTGSGKTLAFGLALLARTAGKRAEPRRPLALVLVPTRELAQQVTDALTPYARAVGLRSATVVGGMSIGRQAGALRSGAEVVVATPGRLKDLIDRGDCALGDVTITVLDEADQMTDMGFMPQVTALLDQVAADGQRMLFSATLDRNVDKLVRRYLTDPVVHSVDPSAGAVTTMEHHVLHVQDEDKQRATIEIAARDGRVIMFLDTKHRVDRLVKHLLKSGVRAAGLHGGKSQPQRTRTLAQFKDGQVTALVATNVAARGIHVDNLDLVVNVDPPGDHKDYLHRGGRTARAGESGSVVTLVTPDQRREMTRLMSLAGITPQVTPVRSGEAELARITGAQTPSGVPVVITAPVVERPRRAAAGAGSPSRGRRGRSAQGRSGGQGTGTQARTGAAQSRTAGQSRTAAQGRPTGESPRRRPRRQSTGGSTGSAA”, “failed”; with “MNRFNYIGMLAYVALSMSSCDDSFDVSSKADGVLAVSQEGFNTLQSYNVGEKYTADLWIQQGGLKSTASVVSFSVDKALLDSMNIADGTSYELLPADCYQLTKSSVDIPANERLLKGELTYDPAKIQELSGYDHLKYVLPLRATSSGMPFVSGRSVLLLGFKVSEPIVTIMNAGVEEINLAEVKELPVQIGVPFTNKWEISCRLESRQSVIDAYNTAHGTYFSMLPSDAYVTPETPILHSGVNQVTATYKLKDDILPGNYMLPVQIAEVTSDATIRADKDVYAAYSIIKEGDKLSKTDWKIVSFTTEEASGEGSNNGHAKHLIDGNIETFWHSRWQGGSDPLPYEIIIDMNHRVKIAQIELLPRGRGSNNPIKVVRFEASEDGTNWESIGQFGFTNQDAALKYYVKSSTARYIKLVIPDGVGNGTVAAIRELDVRGTVVN”, “failed”.

As for “MNRGVIVTGGGHGIGKQICLDFLEAGDKVCFIDIDEKRSADFAKERPNLFYFHGDVADPLTLKKFVEYAMEKLQRIDVLVNNACRGSKGILSSLLYEEFDYILSVGLKAPYELSRLCRDELIKNKGRIINIASTRAFQSEPDSEAYASAKGGIVALTHALAMSLGPDVLVNCIAPGWINVTEQQEFTQEDCAAIPAGKVGTPKDISNMVLFLCQQDFITGETIIVDGGMSKRMIYHGDWNWFYKIDK”, the protein production result was “not failed”.

Regarding “MNRKKLQKLTDTLTKNCKHFNKFEVNCLIKLFYDLVGGVERQGLVVGLDRNAFRNILHVTFGMTDDMIMDRVFRGFDKDNDGCVNVLEWIHGLSLFLRGSLEEKMKYCFEVFDLNGDGFISKEEMFHMLKNSLLKQPSEEDPDEGIKDLVEITLKKMDHDHDGKLSFADYELAVREETLLLEAFGPCLPDPKSQMEFEAQVFKDPNEFNDM”, the protein production entry is “failed”. “MNRLDQLGIRINLICNVFDKWIGQQDLNYNLFTVLYTLATEGSRTQKHIGEEWSLPKQTVSGVCKTLAGQGLIEWQEGEQDRRERLLSLTEKGKVHAAPLTENAQEFSDKVFSTFGDKRTTRLFADLDALAEVMEKTISENKK”: the protein production entry is “failed”. With “MNRNDITILSQQRESVLATNKVLRNTYLLLSLTFIFSALTAYVAFISGARPMNPLLMIVGVYGLMFLTQALRNSVWGLVSVFAFTGFLGYTIGPLLNYYITGFSNGPQIVATALGGTGMIFFALSGYALTTKKDFSYLGGFLFVGVMVALLAMIAGIFIQIPALQLVISAAFVLISSGLILLQTSAIIHEGETNYIMATIGLFVSIYNLFVSLLNLLSAFSGRD” the entry was “failed”; with “MNRSLWTQWSIASVIVLFCAFCLYSPAHAGVDEDLVRAVEDNKTHRVRDLLTKGASPDARDLQSETALMLAARNKNPEMGGLLLEAGANPDLRNKYGETATMLACYYGQLDLVKRLYAKGAKIDHDGWNPLIYAASKGYKEIVEFLLNYGVRIDAATDNGTTALMMAVRGNHYDTVELLLKHGANALIRNEADGTALGWARKQGHTSIVQLLTRNGTAD”, “failed”; with “MNSASTTVPTDLTNERLPSGRLLALGLQHVLVMYAGTVAVPLIVGGALKLPKDQLAFLINADLFAAGLATLIQAFGFWKFGIRMPVMMGVTFASVAPMIAIGNDPNVGLLGIYGAVIASGIFGILIAPMMGRMLGLFPPVVTGTVITLIGVSLMRVGINWAGGGQPTTRAVIDGVAKEVPNLAYGDLSNLAIAGLVLAVILLLSKYGRGLVANCAVLLGIIIGTLVAMALGKVSFEGLNEASYVAVITPLHFGIPKFELTAILSMCIVMLITLVESTGMFLALSDITGRKLSRDDLTAGLRADGLGTVIGGIFNTFPYTSFSQNVGLVTVTGVRSRYVAAAGGLILIAFGLFPKMAHVVASVPQFVLGGAGIVMFGMVAATGIRILGSCDFNRNRHNLFIVAISIGFGMIPTLSPTLFQYLPKWTDPFTHSGIVLGTIVAVALNLFFNGIQSAEEAMRNAAANSHGTE”, “failed”.

For “MNSCILQATVVEAPQLRYTQDNQTPVAEMVVQFPGLSSKDAPARLKVVGWGAVAQELQDRCRLNDEVVLEGRLRINSLLKPDGNREKQTELTVTRVHHLTLDSATGILAQEESEVSYGRSAAASAPVKASPVVTPTAAPDVDYDDIPF”, the protein production result is on record as “failed”.

Turning to “MNSEVDTLFAQAYKLQYEGHLPQAISLYEQILAQSPKHTETLHFLGLTYAQLGDMENAILYFLQARKINPNDVGILNNLANAYKKAGQLDEAIKYYQQAIEIKPEYVQAHNNLAATYALLNNYQKALHHYVIAVNTEPDFSAAHFNLGLLLLKNQQLSAAKTQFNNVIALNPQHREAQFYLGILHLEDNLLSEAEQAFHKVLEQDHEHVQSLINLGVIALKREQNQLAVDYFTKALALDNEDIDARNNLAATFMHHDRFENALMHYDVLLKKEPDNLEYLYNSGVAQMALGHLNEATLLFDQILTLQSDHTPSLNNLAAIYLKMDMRETAREYLERALAINPDDVISRHMLNAITGATSVNTTEKYAQNLFNNYALYYDQHMQGELHYKIPHHIGRLIHQLQLLQTSHSLDLGCGTGLTGIVLREISKHLTGVDIAEKMIARAKEKNIYDLLVCSELIDFLRKDKNDYDLAVAADVLPYFGNLDDIFNSINQHLKQEGYFIFTTEISTTTPWKLESSARFSHQPEYIESLINKYQFHLIKQEKIPGRTQNKQVLEVMLYCIQKSTSCFVSN”, the protein production result is on record as “failed”. As to “MNSHFLTNDLILEVLSRLPLKSVARFHCVSKRWASMFGSPYFKELFLTRSSAKPRLLFAIVQNGVWRFFSSPRLEKSSSTLVATAEFHMKLSPNNLRIYHDNTPRYFSIGYASGLIYLYGDRYEATPLICNPNTGRYTILPKCYTYRKAFSFFGFDPIDKQYKALSMIYPSGPGHSKILTFGDGDMNWKKIKYRVLHDIYSQGICINGVLYYLGDTSDWDNDHDVTSGNVLVCFDLRSESFTFIGLECGQLINYKGKLAVIFWDDVDDDDVKDDAIDEMHVWVLEDVEKKEWSKYAYTWTEDKLYRSQVSVVGMTASGEIVFSMRKYTSEQPFYVYYFNPERNNLRRVEIQGFEAFTKFGTVYTFVDHVEDLNVYNLKHFKSVHPPSVQPEYDESDSESEEDREIII”, the protein production entry is on record as “failed”.

The record behind these values is a protein production outcome set (Wang et al. 2014).
